Reference: US20240350441A1, “PHARMACEUTICAL FORMULATION AND A PROCESS FOR ITS PREPARATION” (SAVA HEALTHCARE LTD, priority 2021, published 2024)

How the values were obtained:
Format in all cases: in vivo, Female Swiss Albino mice
[1] = system: Cyclophosphamide induced hepatotoxicity and renal changes; test: Hepatic and renal parameters in cyclophosphamide induced neutropenia (Example 10)
Experimental: (§1) • 1. To induce neutropenia by administration of cyclophosphamide. • 2.
(§2) Materials: Female Swiss Albino mice weighing between 25-27 g was procured from Global Bioresearch Solutions Pvt Ltd., Pune.
(§3) On day 0, blood was withdrawn from all animals for basal hematological parameters. All the groups of animals except placebo group were injected with 150 mg/kg of cyclophosphamide through intraperitoneal route (i.p.), while group 1 was injected with water for injection, i.p. On Day 3, blood was withdrawn from all animals for Total and differential count (neutrophils, lymphocytes, and monocytes). The animals of group 2 to 7 were dosed with one additional dose of 100 mg/kg cyclophosphamide on Day 4. […] The cyclophosphamide control group was injected with water for injection from day 5 to day 9. On day 10, blood was withdrawn from all animals for total and differential count (neutrophils, lymphocytes, and monocytes), platelets, liver parameters AST (aspartate aminotransferase), ALT (alanine aminotransferase), and renal parameters—serum creatinine, blood urea nitrogen and uric acid.
(§4) • Pure Picroside 1—1 tablet was dissolved in 0.1 ml of sterile water for injection and 0.1 ml was injected as subcutaneous injection. • The degraded Picroside 1 without salt (cinnamic acid of the present disclosure)—1 tablet was dissolved in 0.1 ml of sterile water for injection and 0.1 ml was injected as subcutaneous injection. • The Cinnamic acid low dose (0.6 mg/tablet) treated tablet was dissolved in 0.1 ml of sterile water for injection and 0.1 ml was injected as subcutaneous injection. • The Cinnamic acid high dose treated (6 mg/tablet) tablet was dissolved in 0.1 ml of sterile water for injection and 0.1 ml was injected as subcutaneous injection.

[2] = system: Cyclophosphamide induced neutropenia; test: Cyclophosphamide induced neutropenia, hematological parameters (Example 10)
Experimental: as §1, §2, §3, §4

[3] = system: Cyclophosphamide induced hepatotoxicity; test: Cyclophosphamide induced hepatotoxicity, AST/ALT (Example 9)
Experimental: (§5) Female Swiss Albino mice were randomized into different groups based on body weight as follows: • Group 1—cyclophosphamide control (CP control), • Group 2—pure Picroside 1 treated, • Group 3—the degraded Picroside 1 with salt and • Group 4—GCSF (granulocyte colony stimulating factor) treated groups. • On day 0, blood was withdrawn from all animals for basal hematological parameters. The animals of all the groups were injected with 150 mg/kg of cyclophosphamide through intraperitoneal route (i.p.). On Day 3, blood was withdrawn from all animals for total and differential count (neutrophils, lymphocytes, and monocytes). The animals were dosed with one additional dose of 100 mg/kg cyclophosphamide on Day 4. From day 5, the animals were administered with respective treatments through oral route in water as vehicle while group 1 was administered with placebo tablets for 5 consecutive days. On day 10, blood was withdrawn from all animals for Total and differential count (neutrophils, lymphocytes, and monocytes), WBCs, Platelets and AST (aspartate aminotransferase) and ALT (alanine aminotransferase).

[4] = system: Cyclophosphamide induced neutropenia; test: Cyclophosphamide induced neutropenia, hematological changes (Example 9)
Experimental: • 1. To induce neutropenia in mice by administration of cyclophosphamide. • 2. To determine the effect of treatments of pure Picroside 1 and the degraded Picroside 1 with salt on total WBC count, neutrophils, monocyte, lymphocytes and platelet count. • 3. To compare the effect of pure Picroside 1 and the degraded Picroside 1 with salt standard 2 μg G-CSF.
Cyclophosphamide was procured from Sigma Aldrich and G-CSF was procured from marketed formulation of Lupin limited, Lupifil (300). Female Swiss Albino mice weighing between 25-27 g were procured from National Institute of Biosciences, Pune.
as §5

[5] = day 10, G-CSF 2 μg s.c., others 1 tablet per animal per day for 5 days
[6] = vs CP control, cinnamic acid at both 0.6 mg/tablet low dose and 6 mg/tablet high dose
[7] = Day 0, basal, G-CSF 2 μg, Picroside tablets groups
[8] = Day 3, after cyclophosphamide, before treatment, G-CSF 2 μg, Picroside tablets groups
[9] = Day 10, treated day 5 for 5 days, G-CSF 2 μg s.c., others 1 tablet per animal per day
[10] = vs CP control, day 10, cinnamic acid at both 0.6 mg/tablet low dose and 6 mg/tablet high dose
[11] = compared to cyclophosphamide control group, Example 9
[12] = day 10, after 5 days treatment from day 5, GCSF 2 μg
[13] = Day 0, basal, before cyclophosphamide
[14] = Day 3, after cyclophosphamide 150 mg/kg i.p., before treatment
[15] = Day 10, after 5 days treatment from day 5, GCSF 2 μg

B1: GCSF: glycoprotein that stimulates the bone marrow to produce granulocytes and stem cells; marketed formulation of Lupin limited (protein, UniProt P09919 31-207, looked up)
Granulocyte …: TPLGPASSLPQSFLLKCLEQVRKIQGDGAALQEKLVSECATYKLCHPEELVLLGHSLGIPWAPLSSCPSQALQLAGCLSQLHSGLFLYQGLLQALEGISPELGPTLDTLQLDVADFATTIWQQMEELGMAPALQPTQGAMPAFASAFQRRAGGVLVASHLQSFLEVSYRVLRHLAQP
modifications: filgrastim (Lupifil)
notes: glycoprotein that stimulates the bone marrow to produce granulocytes and stem cells; marketed formulation of Lupin limited
B1 was tested, and the “BUN (blood urea nitrogen)” value [1, 5] was 9.633 mmol/L, the “SGOT Serum glutamic oxaloacetic transaminase” value [1, 5] was 32.17 IU/L and the “SGPT (Serum glutamic pyruvic transaminase)” value [1, 5] was 34.33 IU/L. For the same molecule, the Serum Creatinine [1, 5] was 44.5 µM, the Uric acid [1, 5] was 26.33 mg/L and the “Effect on BUN level” value [1, 6] was “significant (p<0.001) decrease in BUN level”. For the same molecule, the “Effect on SGOT level” value [1, 6] was “significant (p<0.001) reduction in SGOT”, the “Effect on serum creatinine level” value [1, 6] was “significant (p<0.001) reduction in creatinine level” and the “Effect on uric acid level” value [1, 6] was “significant decrease in uric acid levels (p<0.001)”. The “% Lymphocytes” value [2, 7] was 45.5%, the “% Monocytes” value [2, 7] was 6.00% and the “% Neutrophils” value [2, 7] was 41.33%. For the same molecule, the “No of Platelets” value [2, 7] was 752200 per cu · mm of blood, the “Total WBC Count” value [2, 7] was 7255 per cu · mm of blood and the “% Lymphocytes” value [2, 8] was 83.5%. For the same molecule, the “% Monocytes” value [2, 8] was 1.833%, the “% Neutrophils” value [2, 8] was 6.667% and the “No of Platelets” value [2, 8] was 645800 per cu · mm of blood. For the same molecule, the “Total WBC Count” value [2, 8] was 2617 per cu · mm of blood, the “% Lymphocytes” value [2, 9] was 50.17% and the “% Monocytes” value [2, 9] was 5.167%. The “% Neutrophils” value [2, 9] was 36.67%, the “No of Platelets” value [2, 9] was 674900 per cu · mm of blood and the “Total WBC Count” value [2, 9] was 6030 per cu · mm of blood. The “Effect on % lymphocytes” value [2, 10] was “significant (p<0.001) decrease in % lymphocytes”, the “Effect on % monocytes” value [2, 10] was “significantly (p<0.001) reversed” and the “Effect on platelet count” value [2, 10] was “significant (p<0.05) increase in platelet count”. For the same molecule, the “Effect on total WBC count” value [2, 10] was “significantly (p<0.001) reversed the cyclophosphamide induced decrease in WBC count”, the “Effect on AST” value [3, 11] was “significant (p<0.001) reduction in AST” and the “ALT (alanine aminotransferase)” value [3, 12] was 36.16 ± 0.70 IU/L. For the same molecule, the “AST (aspartate aminotransferase)” value [3, 12] was 45.16 ± 2.72 IU/L, the “% Lymphocytes” value [4, 13] was 40.00 ± 3.22% and the “% Monocytes” value [4, 13] was 7.32 ± 0.42%. The “% Neutrophils” value [4, 13] was 42.16 ± 1.74%, the “Platelet Count” value [4, 13] was 732400 ± 7528 per cu · mm of blood and the “WBC Count” value [4, 13] was 7438 ± 626.20 per cu · mm of blood. For the same molecule, the “% Lymphocytes” value [4, 14] was 82.50 ± 1.40%, the “% Monocytes” value [4, 14] was 1.32 ± 0.22% and the “% Neutrophils” value [4, 14] was 7.16 ± 0.48%. For the same molecule, the “Platelet Count” value [4, 14] was 637100 ± 38470 per cu · mm of blood, the “WBC Count” value [4, 14] was 1580 ± 235.00 per cu · mm of blood and the “% Lymphocytes” value [4, 15] was 59.32 ± 2.24 %. For the same molecule, the “% Monocytes” value [4, 15] was 5.66 ± 0.48 %, the “% Neutrophils” value [4, 15] was 26.00 ± 1.66 % and the “Platelet Count” value [4, 15] was 690300 ± 15510 per cu · mm of blood. The “WBC Count” value [4, 15] was 4518 ± 406.00 per cu · mm of blood, the “Effect on % lymphocytes” value [4, 11] was “reversed cyclophosphamide-induced lymphocyte recruitment significantly (p<0.001)” and the “Effect on platelet count” value [4, 11] was “significant increase in platelet count”. For the same molecule, the “Effect on total WBC count” value [4, 11] was “significantly (p<0.001) reversed the cyclophosphamide induced decrease in WBC count”.
